The target in assay [1] is T1, PD1-His (human, UniProt Q15116 25-170).
T1 construct: extracellular domain; In-house protein; also called extracellular domain protein of human PD-1 with a 6*His tag
Put plainly: SPR, Biacore 8K, antibody captured on Protein A/G chip, PD1-His injected. (In general: In SPR one partner is held on a chip, and binding of the other changes the refractive index at the surface.)

For assay [2], the target named is T2, recombinant VEGF165 (Acrobiosystems, Cat. No. VE5-H4210) (UniProt P15692-4 27-191).
T2 construct: Bought; construct not described
Put plainly: bridging ELISA: VEGF165 coated, antibody titrated, biotinylated human PD-1 at 200 ng/ml and streptavidin-HRP for detection. On the technique in general: ELISA stands for enzyme-linked immunosorbent assay.

Assay [3] has as its target T1, PD1-His. Put plainly: ELISA, plate coated with PD1-His.
In assay [4] the target is T3, TGF-β1 (Sino Biological, Cat. No. 10804-HNAC) (UniProt P01137 279-390). Put plainly: ELISA, plate coated with TGF-β1.
For assay [5], the target named is T4, biotinylated human PD-1 extracellular recombinant protein (Sino Biological, Cat. No. 10377-H08H-B) (human, UniProt Q15116 25-170, biotinylated).
T4 construct: extracellular domain; Bought; detection reagent in the bridging ELISAs
Nature of the assay: bridging ELISA: plate coated with TGF-β1, antibody titrated, detected with biotinylated human PD-1 ECD and Streptavidin-HRP; antibody first captured on plate-coated TGF-β1.

The target in assay [6] is T3, TGF-β1 (Sino Biological, Cat. No. …). Nature of the assay: bridging ELISA: TGF-β1 coated, antibody titrated, biotinylated human PD-1 and streptavidin-HRP for detection.
For assay [7], the target named is T4, biotinylated human PD-1 extracellular …. The description is as above.
The target of assay [8] is T5, LAG3-ECD-His (human, UniProt P18627 23-450).
T5 construct: extracellular domain; Bought; not shown: polyhistidine tag
T5 sequence (looked up): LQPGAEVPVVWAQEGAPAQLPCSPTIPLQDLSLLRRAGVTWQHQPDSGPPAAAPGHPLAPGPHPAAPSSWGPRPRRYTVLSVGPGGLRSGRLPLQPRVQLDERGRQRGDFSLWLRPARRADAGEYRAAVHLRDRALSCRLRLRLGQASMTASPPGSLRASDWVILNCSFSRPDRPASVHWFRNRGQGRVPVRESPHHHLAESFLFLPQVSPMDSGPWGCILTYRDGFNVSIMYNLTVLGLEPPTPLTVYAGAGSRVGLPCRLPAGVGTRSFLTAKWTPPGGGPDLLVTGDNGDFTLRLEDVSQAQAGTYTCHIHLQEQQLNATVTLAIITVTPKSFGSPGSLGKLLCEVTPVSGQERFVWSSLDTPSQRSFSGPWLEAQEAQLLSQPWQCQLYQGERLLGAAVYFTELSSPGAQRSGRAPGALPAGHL
Nature of the assay: ELISA, plate coated with LAG3-ECD-His.

Assay [9] has as its target T5, LAG3-ECD-His. Nature of the assay: ELISA, LAG3-ECD-His coated.

The Kd is the free concentration of one partner at which half of the binding sites on the other are occupied at equilibrium, for simple one-to-one binding. Read a high Kd as lower affinity. Usually koff stands for the first-order rate constant of dissociation. Higher therefore signals fast dissociation. One may read the kon as the second-order rate constant of association. The low end stands for slower complex formation, the high end for faster complex formation. Broadly, the EC50 is the concentration at which the effect is half-maximal. In general, EC50 (read off the curve) refers to the concentration at which the effect is half-maximal. Lower therefore signals a more potent agent.

Where “and” joins values, the source holds several entries; their conditions need not be identical. Identical values can stand only once.

T1 sequence (Q15116 other isoform, or with tags, fused parts or gaps): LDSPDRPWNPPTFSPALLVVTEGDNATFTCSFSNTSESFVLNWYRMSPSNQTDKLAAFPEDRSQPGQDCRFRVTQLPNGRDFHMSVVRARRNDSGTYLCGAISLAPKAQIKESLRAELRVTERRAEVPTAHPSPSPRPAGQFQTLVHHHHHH
T3 sequence (P01137 279-390 limits assumed): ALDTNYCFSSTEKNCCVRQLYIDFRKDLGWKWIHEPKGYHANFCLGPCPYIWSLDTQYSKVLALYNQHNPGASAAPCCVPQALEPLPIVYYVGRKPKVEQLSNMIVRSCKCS
T4 sequence (Q15116 25-170): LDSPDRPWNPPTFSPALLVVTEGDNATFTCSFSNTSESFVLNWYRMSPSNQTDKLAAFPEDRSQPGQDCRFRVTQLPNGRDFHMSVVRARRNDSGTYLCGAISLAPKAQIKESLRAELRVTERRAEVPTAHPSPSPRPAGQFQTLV
T2 sequence (P15692 other isoform, or with tags, fused parts or gaps): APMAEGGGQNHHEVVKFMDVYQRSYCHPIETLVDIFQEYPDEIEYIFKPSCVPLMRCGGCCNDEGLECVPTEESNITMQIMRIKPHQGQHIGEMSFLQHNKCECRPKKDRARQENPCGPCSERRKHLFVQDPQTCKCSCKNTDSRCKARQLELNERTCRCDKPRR

B1: 20-Hu-HC+601-LC-V94L (antibody, human IgG4 S228P, kappa, V domains shown)
VH: EVQLVESGGGLVQPGGSLRLSCAASGFVFSNYDMSWVRQAPGKRLEWVATISGGGGYTYYSDSVKGRFTISRDNAKNSLYLQMNSLRAEDTAVYYCASPYGHYGFEYWGQGTLVTVSS
VL: DIQMTQSPSSLSASVGDRVTITCSASQDISNYLNWYQQKPGKAPKVLIYFTSSLHSGVPSRFSGSGSGTDFTLTISSLQPEDFATYYCQQYSTLPWTFGQGTKVEIKR
In the assay with PD1-His [1], B1 came in with a dissociation constant Kd of 1.59 nM, a koff of 4.54e-05 s⁻¹ and an association rate constant (kon) of 28600 M⁻¹ s⁻¹. In addition, the binding result in [2] was “no binding”. In the assay with PD1-His [3], the EC50 is 0.308 nM and 0.331 nM.

B2: 14-Fab-127-IgG4 (bispecific antibody)
heavy: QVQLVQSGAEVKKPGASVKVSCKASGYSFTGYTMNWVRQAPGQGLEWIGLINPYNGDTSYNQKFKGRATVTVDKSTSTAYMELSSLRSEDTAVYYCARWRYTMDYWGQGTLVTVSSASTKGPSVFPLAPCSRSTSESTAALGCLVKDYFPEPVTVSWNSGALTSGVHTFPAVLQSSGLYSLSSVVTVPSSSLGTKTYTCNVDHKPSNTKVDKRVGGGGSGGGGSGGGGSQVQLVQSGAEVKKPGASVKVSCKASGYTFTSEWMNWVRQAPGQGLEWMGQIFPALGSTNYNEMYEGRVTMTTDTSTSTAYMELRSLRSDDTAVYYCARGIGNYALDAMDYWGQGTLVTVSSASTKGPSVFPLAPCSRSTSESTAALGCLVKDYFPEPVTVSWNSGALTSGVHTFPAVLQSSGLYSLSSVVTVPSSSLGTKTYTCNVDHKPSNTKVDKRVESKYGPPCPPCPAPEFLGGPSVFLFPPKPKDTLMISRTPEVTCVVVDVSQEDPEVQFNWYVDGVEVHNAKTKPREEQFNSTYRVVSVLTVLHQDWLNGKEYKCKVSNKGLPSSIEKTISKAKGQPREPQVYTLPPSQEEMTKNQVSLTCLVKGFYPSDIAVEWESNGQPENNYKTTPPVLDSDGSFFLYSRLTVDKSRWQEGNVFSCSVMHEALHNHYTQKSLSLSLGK
light: DIVLTQSPASLAVSPGQRATITCRASESVDNYGNSFMNWYQQKPGQPPKPLIYFASNLESGVPARFSGSGSRTDFTLTINPVEADDTANYYCQQNNEAPPTFGQGTKVEIKRTVAAPSVFIFPPSDEQLKSGTASVVCLLNNFYPREAKVQWKVDNALQSGNSQESVTEQDSKDSTYSLSSTLTLSKADYEKHKVYACEVTHQGLSSPVTKSFNRGEC
Turning to B2, the EC50 in [4] came out at 0.152 nM; in [5], 0.278 nM; with PD1-His [3], 0.387 nM.

B3: 14-Hu (antibody, human IgG4 S228P, kappa, V domains shown)
VH: QVQLVQSGAEVKKPGASVKVSCKASGYSFTGYTMNWVRQAPGQGLEWIGLINPYNGDTSYNQKFKGRATVTVDKSTSTAYMELSSLRSEDTAVYYCARWRYTMDYWGQGTLVTVSS
VL: DIVLTQSPASLAVSPGQRATITCRASESVDNYGNSFMNWYQQKPGQPPKPLIYFASNLESGVPARFSGSGSRTDFTLTINPVEADDTANYYCQQNNEAPPTFGQGTKVEIKR
notes: Humanized anti-PD-1, IgG4 (S228P), kappa; also called 14-Hu-HC+14-Hu-LC
For B3, the EC50 with PD1-His [3] is 0.392 nM and 0.432 nM. Moreover, the binding result in assay [6] was “no binding”.

B4: mAb127-HC+14-Hu-LC (antibody, human IgG4 S228P, kappa, V domains shown)
VH: QVQLVQSGAEVKKPGASVKVSCKASGYTFTSEWMNWVRQAPGQGLEWMGQIFPALGSTNYNEMYEGRVTMTTDTSTSTAYMELRSLRSDDTAVYYCARGIGNYALDAMDYWGQGTLVTVSS
VL: DIVLTQSPASLAVSPGQRATITCRASESVDNYGNSFMNWYQQKPGQPPKPLIYFASNLESGVPARFSGSGSRTDFTLTINPVEADDTANYYCQQNNEAPPTFGQGTKVEIKR
notes: Hybrid antibody
As for B4, the concentration for a half-maximal effect (EC50) in assay [4] was 0.0711 nM and 0.0803 nM. Besides, the binding result in assay [7] was “no binding”.

B5: 5E7-Hu (antibody, human IgG4 S228P, kappa, V domains shown)
VH: EVQLVESGGGLVKPGGSLRLSCAASGFTFSDDYMAWFRQAPGKRLEWVASISHGGDYIYYADNLKGRFTISRDNAKNSLYLQMNSLRAEDTAVYFCSRDRRSIDYWGQGTLVTVSS
VL: DIQMTQSPSSLSASVGDRVTITCRASQDISNYLSWYQQKPGKTIKLLIYYTSRLHSGVPSRFSGSGSGTDYTFTISSLQPEDIATYFCQQGKTLPYTFGQGTKVEIKR
notes: Humanized anti-human LAG-3, IgG4 (S228P), kappa; also called 5E7-Hu-HC+5E7-Hu-LC
B5 gave a concentration for a half-maximal effect (EC50) with LAG3-ECD-His [8] of 0.147 nM. Moreover, in the assay with LAG3-ECD-His [9], the “EC50 (read off the curve)” value was approximately 0.1 nM.

The values are drawn from patent US20220259330A1 (SUNSHINE GUOJIAN PHARMACEUTICAL SHANGHAI, published 2022).
